Data published in patent publication US20210130420A1, “RECOMBINANT BINDING PROTEINS TARGETING HER2 AND SERUM ALBUMIN, AND THEIR USES” (Molecular Partners AG, priority 2016, published 2021).
Where a chain is given by its changes, count along the chain named. Entries after “also recorded” stand apart in the source; their conditions may differ.

B1: Protein #14-His: SEQ ID NO: 14 with a His-tag; stability-improved serum albumin binding designed ankyrin repeat domain, aspartate 80 of SEQ ID NO: 13 mutated to glutamate (protein)
chain: GSDLGKKLLEAARAGQDDEVRELLKAGADVNAKDYFSHTPLHLAARNGHLKIVEVLLKAGADVNAKDFAGKTPLHLAANEGHLEIVEVLLKAGADVNAQDIFGKTPADIAADAGHEDIAEVLQKAA
modifications: His-tag; Designed ankyrin repeat domain
B2: Protein #13-His: SEQ ID NO: 13 with a His-tag; designed ankyrin repeat domain with binding specificity for serum albumin (WO2012/069654) (protein)
chain: B1 chain with E80D
modifications: His-tag; Designed ankyrin repeat domain
B3: Protein #21-His: SEQ ID NO: 21 with a His-tag (SEQ ID NO: 1) fused to its N terminus (protein)
chain: MRGSHHHHHHGSDLGKKLLEAARAGQDDEVRELLKAGADVNAKDYFSHTPLHLAARNGHLKIVEVLLKAGADVNAKDFAGKTPLHLAANEGHLEIVEVLLKAGADVNAQDIFGKTPADIAADAGHEDIAEVLQKAAGSPTPTPTTPTPTPTTPTPTPTGSDLGIKLLFAAAKGQDDEVRELLKAGADVNAKDFQGVTPLHIAAQSGHLEIVEVLLKAGADVNAKDVTGDTPLHLAAQHGHLEIVEVLLKAGADVNAQDERGWTPADLAADWGHEDIAEVLQKAAGSPTPTPTTPTPTPTTPTPTPTGSDLGKKLLEAARAGQDDEVRELLKAGADVNAKDEYGLTPLYLATAHGHLEIVEVLLKAGADVNAVDAIGFTPLHLAAFIGHLEIAEVLLKAGADVNAQDKFGKTPADIAAGAGNEDIAEVLQKAAGSPTPTPTTPTPTPTTPTPTPTGSDLGKKLLEAARAGQDDEVRELLKAGADVNAKDYFSHTPLHLAARNGHLKIVEVLLKAGADVNAKDFAGKTPLHLAANEGHLEIVEVLLKAGADVNAQDIFGKTPADIAADAGHEDIAEVLQKAA
modifications: Protein comprising four designed ankyrin repeat domains

How the values were obtained:
[1] = Thermal unfolding, midpoint of thermal denaturation; type: physicochemical; conditions: pH 6.0
Source text: Degradation may for example occur in the vicinity of any one of the 5 asparagines (including asparagine-glycine dipeptides), 13 aspartates, or 10 glycines of SEQ ID NO: 13, amongst additional potential degradation sites. SEQ ID NO: 13 further comprises a number of potential oxidation sites. […] When mutating aspartate at position 80 of SEQ ID NO: 13 to glutamate, a functional designed ankyrin repeat domain with binding specificity for serum albumin was generated, corresponding to SEQ ID NO: 14, which does show a marked improvement in storage stability (Example 3; FIGS. 2A and 2B).

[2] = Storage stability in PBS analysed by SDS-PAGE; type: physicochemical
Procedure: “Improved storage stability” in the context of the present invention means the reduction of the amounts of a degradation band, preferably the reduction of the amount of degradation products, as detected by a Coomassie-stained SDS-PAGE occurring after storage at 40° C. for 1 month at 10 mg/ml in PBS, by at least 5%, 10%, 15%, 20%, 25%, 30%, 35%, 40%, 45%, 50%, or 50%. Methods to assess storage stability by SDS-PAGE are well known to the person skilled in the art. Examples of designed ankyrin repeat domains and recombinant binding proteins with improved storage stability properties are given in Examples 2 and 3.
Protein #13-His, Protein #14-His and Protein #15-His were prepared as described in Example 1, and samples were concentrated to 10 mg/ml in PBS. Protein #14-His and Protein #15-His where then stored for 1 month at −80° C. or at 40° C. in glass vials, followed by analysis on SDS 15% PAGE. […] These findings illustrate that Protein #14-His has improved storage stability compared to Proteins #13-His and Protein #15-His.
A storage stability improvement is also observed, when testing the storage stability of Protein #21 and Protein #22 (recombinant binding proteins consisting of the amino acid sequences corresponding to SEQ ID NOs: 21 and 22, respectively). Protein #21 and Protein #22 are prepared as described in Example 1, samples are concentrated to 10 mg/ml in PBS and stored for 1 month at −80° C. in or at 40° C. in glass vials, followed by analysis on standard size-exclusion chromatography.

[3] = Pharmacokinetic analysis in mouse; type: in vivo
Procedure: The measurements shown in this example are the result of a half-life engineering effort as described in Example 11. Protein #21-His and Protein #23-His were expressed and purified as described in Example 1. The pharmacokinetic properties of the His-tagged proteins were assessed in mouse as described elsewhere (Zahnd, C., Kawe, M., Stumpp, M. T., de Pasquale, C., Tamaskovic, R., Nagy-Davidescu, G., Dreier, B., Schibli, R., Binz, H. K., Waibel, R., Plückthun, A., Cancer Res. 70, 1595-1605, 2010). […] Having SEQ ID NO: 16 present in the recombinant binding protein thus appears to be more favorable than having SEQ ID NO: 18 present.
Polypeptide linkers that link protein domains are well-known to the person skilled in the art. Gly-Ser-rich linkers are well-known from single-chain Fv antibody fragments, where they have proven to be most appropriate to link the two Fv polypeptide chains. […] Protein #26-His and Protein #27-His, were expressed and purified as described in Example 1. Pharmacokinetic analyses in mouse were performed as described in Example 8.
(§1) For the studies in this example Protein #21-His, Protein #24-His, Protein #28-His, Protein #29-His, and Protein #30-His were prepared according to Example 1. Protein #28-His was additionally PEGylated using a 40 kDa PEG moiety (NOF Sunbright GL2-400MA) by maleimid coupling of the PEG-moiety onto the free C-terminal cysteine of Protein #28-His, followed by purification to homogeneity using standard purification methods, procedures well known to the person skilled in the art. Pharmacokinetic analyses in mouse or cynomolgus monkey were performed as described in Examples 8 and 9.

[4] = Pharmacokinetic analysis in cynomolgus monkey; type: in vivo
Procedure: The measurements shown in this example are the result of a half-life engineering effort as described in Example 11. Protein #21-His, Protein #23-His, and Protein #24-His were expressed and purified as described in Example 1. The pharmacokinetic properties of the proteins were assessed in cynomolgus monkey. Proteins were administered via intravenous infusion for 30 min at a target dose level of between 1 mg/kg to cynomolgus monkeys. Blood samples were collected pre-dose and again at selected time points, for example 5 min, 10 min, 0.5 hours, 1 hour, 2 hours, 4 hours, 8 hours, 12 hours, 24 hours, 48 hours, 72 hours, 96 hours, 120 hours, 144 hours, 168 hours, 192 hours, 216 hours, and 240 hours post-end of infusion (i.e. post-injection). The blood samples were allowed to stand at room temperature and were centrifuged to generate serum, followed by storage at −80° C. pending analyses. Pharmacokinetic parameters were determined using procedures well known to the person skilled in the art. Serum concentrations of proteins were determined by sandwich ELISA using a rabbit monoclonal anti-designed ankyrin repeat domain antibody as capture reagent and murine monoclonal anti-designed ankyrin repeat domain antibody as detection reagent, and using a standard curve. Pharmacokinetic parameters were determined using standard software such as Phoenix WinNonLin (Certara, Princeton, USA) or Graph Pad Prism (GraphPad Software, La Jolla, USA) and standard analyses such as non-compartmental analyses. […] Target mediated clearance is well-known to the person skilled in the art and is known from e.g. antibodies targeting HER2.
Similarly, Protein #21-His was expressed and purified as described in Example 1. The pharmacokinetic properties of the proteins were assessed in cynomolgus monkey as described above at 1 mg/kg, 5 mg/kg and 10 mg/kg.
Similar results are observed when testing Protein #21 (expressed and purified as described in Example 1). The pharmacokinetic properties of the proteins are assessed in cynomolgus monkey as described above at 1 mg/kg, 10 mg/kg and 100 mg/kg. Pharmacokinetic parameters are evaluated as described above.
as §1

[5] = system: BT474 human breast carcinoma cells; test: BT474 breast cancer tumor xenograft mouse model; type: in vivo
Procedure: Protein #21-His, Protein #23-His, Protein #24-His, Protein #25-His were expressed and purified as described in Example 1. […] BT474 breast cancer tumor xenograft mouse models were essentially performed as follows using procedures well known to the person skilled in the art: BT474 human breast carcinoma cells were cultured, resuspended, and 2*10^7 cells in 200 μl RPMI 1640 medium containing 50:50 matrigel (BD Biosciences) per mouse were injected into the right flank of female Balb/c nude mice. […] Tumor volumes were measured for 32 days.
In a similar study using BT474 cells (identical setup and procedure; all 35 mg/kg doses), Protein #21-His was compared to Protein #23-His, Protein #24-His, and Protein #25-His.

Molecule	midpoint of thermal denaturation Tm [1]	stability upon storage at −80° C. ([2]; 10 mg/ml in PBS, 1 month at −80° C., SDS 15% PAGE)	reduction of degradation products compared to Protein #15-His ([2]; 10 mg/ml in PBS, glass vials, 1 month at 40° C., SDS 15% PAGE)	reduction of degradation products compared to Protein #13-His ([2]; 10 mg/ml in PBS, one week at 40° C., SDS 15% PAGE)	reduction of degradation products compared to Protein #13-His ([2]; 10 mg/ml in PBS, one week at 60° C., SDS 15% PAGE)	degradation upon prolonged incubation ([2]; in PBS at 10 mg/ml at 40° C.)	% ID remaining after 48 hours [3]	terminal half-life [3]	concentration below which target-mediated clearance is observed [4]	terminal half-life ([4]; 1 mg/kg, intravenous infusion)	inhibition of tumor growth ([5]; Protein #21-His 35 mg/kg, Trastuzumab 10 mg/kg, i.v. Q3Dx7, tumor volumes measured for 32 days, FIG. 4A)	tumor suppression compared to Protein #24-His ([5]; after 32 days of treatment, FIG. 4B)	tumor suppression compared to other recombinant binding proteins ([5]; all 35 mg/kg doses, day 18 of treatment, FIG. 4B)
B1	89.5 °C	equivalent stability	> 50%	> 50%	> 50%	–	–	–	–	–	–	–	–
B2	86 °C	–	–	–	–	degrade	–	–	–	–	–	–	–
B3	–	–	–	–	–	–	19.5 % ID	30.4 h	below 100 nM	47 h	more efficacious in inhibiting tumor growth than Trastuzumab	significantly better tumor suppression than Protein #24-His	more efficacious in suppressing tumors than Protein #23-His, Protein #24-His, or Protein #25-His; also recorded: significantly more efficacious in inhibiting tumor growth than Protein #24-His
